{"source": "paper PMC10650157", "origin": "cited, not measured here", "key": {"[1]": {"molecular_target": "apo-transferrin (Homo sapiens) (UniProt P02787)", "sequence (P02787 20-698)": "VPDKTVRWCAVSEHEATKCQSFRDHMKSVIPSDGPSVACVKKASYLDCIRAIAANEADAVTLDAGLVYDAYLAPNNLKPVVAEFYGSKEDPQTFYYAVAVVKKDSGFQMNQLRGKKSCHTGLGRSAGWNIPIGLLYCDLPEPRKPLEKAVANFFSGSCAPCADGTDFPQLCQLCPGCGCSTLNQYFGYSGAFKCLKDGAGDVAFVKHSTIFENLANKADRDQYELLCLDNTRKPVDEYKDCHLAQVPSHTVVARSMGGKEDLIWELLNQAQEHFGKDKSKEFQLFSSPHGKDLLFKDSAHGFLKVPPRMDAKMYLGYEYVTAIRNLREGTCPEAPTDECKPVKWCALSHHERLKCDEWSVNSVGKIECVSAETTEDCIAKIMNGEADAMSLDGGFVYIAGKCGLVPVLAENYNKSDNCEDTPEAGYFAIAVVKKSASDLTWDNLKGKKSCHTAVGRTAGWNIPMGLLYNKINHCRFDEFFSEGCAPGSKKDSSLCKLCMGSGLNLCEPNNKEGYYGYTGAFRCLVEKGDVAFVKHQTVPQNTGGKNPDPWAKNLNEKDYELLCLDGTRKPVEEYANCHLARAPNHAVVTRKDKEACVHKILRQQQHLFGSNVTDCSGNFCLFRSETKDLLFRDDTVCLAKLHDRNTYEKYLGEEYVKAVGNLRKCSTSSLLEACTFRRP"}, "[2]": {"molecular_target": "apo-lactoferrin (Homo sapiens) (UniProt P02788)", "sequence (P02788 20-710)": "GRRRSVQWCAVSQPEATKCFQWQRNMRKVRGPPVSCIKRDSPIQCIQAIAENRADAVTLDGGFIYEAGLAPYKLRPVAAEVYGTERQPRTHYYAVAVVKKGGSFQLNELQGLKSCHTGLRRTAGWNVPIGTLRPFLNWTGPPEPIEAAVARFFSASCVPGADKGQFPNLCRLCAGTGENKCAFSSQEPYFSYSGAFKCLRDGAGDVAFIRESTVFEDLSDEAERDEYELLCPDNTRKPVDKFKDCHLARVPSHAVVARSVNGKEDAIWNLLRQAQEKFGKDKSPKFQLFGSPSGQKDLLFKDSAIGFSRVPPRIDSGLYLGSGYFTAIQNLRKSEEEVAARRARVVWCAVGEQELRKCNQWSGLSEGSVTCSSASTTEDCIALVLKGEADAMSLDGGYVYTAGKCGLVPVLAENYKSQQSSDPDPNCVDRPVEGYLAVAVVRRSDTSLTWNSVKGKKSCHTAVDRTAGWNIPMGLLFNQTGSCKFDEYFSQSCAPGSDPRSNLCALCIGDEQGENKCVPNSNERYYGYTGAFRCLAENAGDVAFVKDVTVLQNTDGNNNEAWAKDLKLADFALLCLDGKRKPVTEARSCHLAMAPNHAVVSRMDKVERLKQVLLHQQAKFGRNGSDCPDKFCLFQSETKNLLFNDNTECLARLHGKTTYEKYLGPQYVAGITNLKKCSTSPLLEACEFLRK"}}, "data": [{"substance": "Ceruloplasmin (from UniProt P00450)", "values": [{"measurement": "Kd", "setting": "[1]", "value": 51.3, "unit": "µM"}, {"measurement": "Kd", "setting": "[2]", "value": 7.4, "unit": "µM"}]}]}
